Results from patent US20090264352A1 (published 2009).

Biological target: T1, GLP-1 receptor (RINm5F cell membranes) (UniProt P32301 22-463, limits assumed)
T1 construct: whole, on cells; The receptor source is homogenized cell membranes, not intact cells
T1 sequence (looked up): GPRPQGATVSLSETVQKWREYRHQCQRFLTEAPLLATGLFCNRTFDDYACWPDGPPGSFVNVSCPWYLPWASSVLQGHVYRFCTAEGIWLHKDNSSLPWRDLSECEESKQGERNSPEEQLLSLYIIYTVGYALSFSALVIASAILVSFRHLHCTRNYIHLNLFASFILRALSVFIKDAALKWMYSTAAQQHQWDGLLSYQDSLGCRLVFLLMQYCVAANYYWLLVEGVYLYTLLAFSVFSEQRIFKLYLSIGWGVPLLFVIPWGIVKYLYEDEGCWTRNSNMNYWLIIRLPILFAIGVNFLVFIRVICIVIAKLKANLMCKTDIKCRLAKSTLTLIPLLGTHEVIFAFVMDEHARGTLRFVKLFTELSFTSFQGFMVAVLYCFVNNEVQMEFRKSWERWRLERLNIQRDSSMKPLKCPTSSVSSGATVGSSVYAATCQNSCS
Experiment: displacement of [125I]GLP-1 from RINm5F cell membranes, filtration and scintillation counting
Procedure: Reaction mixtures are filtered through glass filter pads presoaked with 0.3% PEI solution and rinsed with ice-cold phosphate buffered saline. Bound counts are determined using a scintillation counter. Binding affinities are calculated using GraphPad Prism [sequence] PRISM® software (GraphPad Software, Inc., San Diego, Calif.).

B1: GLP-1 (9-36) (peptide, UniProt P01275 100-127, looked up)
peptide: EGTFTSDVSSYLEGQAAKEFIAWLVKGR
notes: range 100-127; Test compound in the displacement assay
  IC50: 65 nM
